Test results as given in publication PMC4546403.

B1: Drosophila Smo (dSmo): dSmoNQ5 (protein)
parent chain: MQYLNFPRMPNIMMFLEVAILCLWVVADASASSAKFGSTTPASAQQSDVELEPINGTLNYRLYAKKGRDDKPWFDGLDSRHIQCVRRARCYPTSNATNTCFGSKLPYELSSLDLTDFHTEKELNDKLNDYYALKHVPKCWAAIQPFLCAVFKPKCEKINGEDMVYLPSYEMCRITMEPCRILYNTTFFPKFLRCNETLFPTKCTNGARGMKFNGTGQCLSPLVPTDTSASYYPGIEGCGVRCKDPLYTDDEHRQIHKLIGWAGSICLLSNLFVVSTFFIDWKNANKYPAVIVFYINLCFLIACVGWLLQFTSGSREDIVCRKDGTLRHSEPTAGENLSCIVIFVLVYYFLTAGMVWFVFLTYAWHWRAMGHVQDRIDKKGSYFHLVAWSLPLVLTITTMAFSEVDGNSIVGICFVGYINHSMRAGLLLGPLCGVILIGGYFITRGMVMLFGLKHFANDIKSTSASNKIHLIIMRMGVCALLTLVFILVAIACHVTEFRHADEWAQSFRQFIICKISSVFEEKSSCRIENRPSVGVLQLHLLCLFSSGIVMSTWCWTPSSIETWKRYIRKKCGKEVVEEVKMPKHKVIAQTWAKRKDFEDKGRLSITLYNTHTDPVGLNFDVNDLNSSETNDISSTWAAYLPQCVKRRMALTGAATGNSSSHGPRKNSLDSEISVSVRHVSVESRRNSVDSQVSVKIAEMKTKVASRSRGKHGGSSSNRRTQRRRDYIAAATGKSSRRRESSTSVESQVIALKKTTYPNASHKVGVFAHHSSKKQHNYTSSMKRRTANAGLDPSILNEFLQKNGDFIFPFLQNQDMSSSSEEDNSRASQKIQDLNVVVKQQEISEDDHDGIKIEELPNSKQVALENFLKNIKKSNESNSNRHSRNSARSQSKKSQKRHLKNPAADLDFRKDCVKYRSNDSLSCSSEELDVALDVGSLLNSSFSGISMGKPHSRNSKTSCDVGIQANPFELVPSYGEDELQQAMRLLNAASRQRTEAANEDFGGTELQGLLGHSHRHQREPTFMSESDKLKMLLLPSK
B2: Drosophila Smo (dSmo): N336Q (protein)
parent chain: B1 parent chain
B3: Drosophila Smo (dSmo): dSmoN213Q,N336Q (protein)
parent chain: B1 parent chain
B4: Drosophila Smo (dSmo): dSmoN336Q (protein)
parent chain: B1 parent chain
B5: Drosophila Smo (dSmo): N213Q (protein)
parent chain: B1 parent chain
B6: Drosophila Smo (dSmo): N213Q,N336Q (protein)
parent chain: B1 parent chain

How the values were obtained:
[1] = immunofluorescence, Hh-induced plasma membrane vs ER marker, Cl8; settings: glycan lost; control: wild type dSmo
[2] = cycloheximide chase, Cl8 cells, densitometry; settings: glycan lost; control: wild type dSmo
[3] = western blot of Cl8 cell lysates; settings: glycan lost; control: wild type dSmo
[4] = western blot of wing imaginal disc lysates; settings: glycan lost; control: wild type dSmo transgene
[5] = EndoH-resistant post-ER vs EndoH-sensitive ER fraction, western; settings: glycan lost; control: wild type dSmo
[6] = biotin-maleimide free-thiol labelling, NeutrAvidin capture (disulfide integrity); settings: glycan lost; control: wild type dSmo

| Protein | localisation_or_trafficking [1] | degradation_or_half_life, half_life [2] | expression_or_secretion [3] | expression_or_secretion [4] | localisation_or_trafficking [5] | stability_or_folding [6] |
| --- | --- | --- | --- | --- | --- | --- |
| B1 | abolishes | increases, ~4 vs ~1 | increases | no change | – | – |
| B2 | abolishes | – | – | – | decreases | decreases |
| B3 | – | – | – | increases | – | – |
| B4 | – | – | increases | – | – | – |
| B5 | no change | – | – | – | no change | – |
| B6 | decreases | – | – | – | decreases | decreases |
